Laboratory results reported in US20250312473A1, “B7H3 ANTIBODY DRUG CONJUGATES” (BEONE MEDICINES I GMBH, priority 2022, published 2025).

Molecular target: T1, ECD of human 4Ig-B7H3 (Homo sapiens, UniProt Q5ZPR3)
T1 construct: ECD of human 4Ig-B7H3 (Sinobiological, Cat: 11188-H08H); purchased Sinobiological 11188-H08H
T1 sequence (Q5ZPR3 29-466 limits assumed): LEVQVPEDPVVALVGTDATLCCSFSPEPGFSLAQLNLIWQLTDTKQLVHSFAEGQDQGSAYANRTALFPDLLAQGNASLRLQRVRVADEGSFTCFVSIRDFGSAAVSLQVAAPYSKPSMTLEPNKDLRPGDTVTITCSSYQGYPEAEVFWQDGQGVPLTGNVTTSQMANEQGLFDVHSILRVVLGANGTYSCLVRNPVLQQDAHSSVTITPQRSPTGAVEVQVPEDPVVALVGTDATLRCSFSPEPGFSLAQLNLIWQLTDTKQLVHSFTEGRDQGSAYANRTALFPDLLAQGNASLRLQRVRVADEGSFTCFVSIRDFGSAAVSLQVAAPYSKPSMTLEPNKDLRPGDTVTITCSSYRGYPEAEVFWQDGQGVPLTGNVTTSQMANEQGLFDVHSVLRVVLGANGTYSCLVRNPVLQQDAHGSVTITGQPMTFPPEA
Test: SPR affinity determination
Type: binding
Description: For affinity determination, antibodies were captured by anti-human Fc surface, and used in an affinity assay based on surface plasmon resonance (SPR) technology. The results of SPR-determined binding profiles of humanized antibodies to ECD of human 4Ig-B7H3 (Sinobiological, Cat: 11188-H08H) were summarized in Table 20.

koff (Test 1): 1.04e-05 s⁻¹ | kon (Test 1): 31500 M⁻¹ s⁻¹ | koff (Test 2): 0.000227 s⁻¹ | kon (Test 2): 369000 M⁻¹ s⁻¹ | Kd (read-out: dissociation constants): 600 pM
B1: BGA-4348: "1^st version of humanized antibody BGA-4348", CDR-grafted from BGA-3295, human IgG1 variant format (antibody)
heavy: QIQLVQSGAEVKKPGSSVKVSCKASGYTFTNYDINWVRQAPGQGLEWMGWIYPGDGSAYYNEKFKGRATITADKSTSTAYMELSSLRSEDTAVYYCARWGYGGVPFAYWGQGTLVTVSSASTKGPSVFPLAPSSKSTSGGTAALGCLVKDYFPEPVTVSWNSGALTSGVHTFPAVLQSSGLYSLSSVVTVPSSSLGTQTYICNVNHKPSNTKVDKKVEPKSCDKTHTCPPCPAPPAAGPSVFLFPPKPKDTLMISRTPEVTCVVVDVSHEDPEVKFNWYVDGVEVHNAKTKPREEQYNSTYRVVSVLTVLHQDWLNGKEYKCKVSNKALAAPIEKTISKAKGQPREPQVYTLPPSRDELTKNQVSLTCLVKGFYPSDIAVEWESNGQPENNYKTTPPVLDSDGSFFLYSKLTVDKSRWQQGNVFSCSVMHEALHNHYTQKSLSLSPGK
light: DIVMTQSPDSLAVSLGERATINCKSSQSLLNDINQKNYLAWYQQKPGQSPKLLVYFASTGVSGVPDRFSGSGSGTDFTLTISSLQAEDVAVYYCQQYYSFPWTFGGGTKVEIK
modifications: left off: a dimerising Fc or GST
notes: "1st version of humanized antibody BGA-4348", CDR-grafted from BGA-3295, human IgG1 variant format
